Reference: US20220298260A1 (MYTHIC THERAPEUTICS, published 2022)
Changes are numbered by the printed parent chain.

B1: MYT2258 (antibody, V domains shown)
VH: EVQLVESGGGLVQPGGSLRLSCAASGFNIRTQSIHWVRQAPGKGLEWIGDIFPIDGITDYADSVKGRFTISADTSKNTAYLQMNSLRAEDTAVYYCARGSWSHPSGMDYYLDYWGQGTLVTVSS
VL: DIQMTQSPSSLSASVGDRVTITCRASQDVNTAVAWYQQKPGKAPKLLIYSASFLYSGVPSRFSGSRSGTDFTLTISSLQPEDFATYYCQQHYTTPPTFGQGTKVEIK
notes: IgG
B2: MYT4506 (antibody, V domains shown)
VH: B1 VH with H103W
VL: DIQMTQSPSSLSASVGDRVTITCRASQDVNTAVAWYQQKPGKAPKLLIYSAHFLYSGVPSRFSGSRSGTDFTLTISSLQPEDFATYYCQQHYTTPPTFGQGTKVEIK
notes: IgG
B3: MYT4494 (antibody, V domains shown)
VH: B1 VH with H103W
VL: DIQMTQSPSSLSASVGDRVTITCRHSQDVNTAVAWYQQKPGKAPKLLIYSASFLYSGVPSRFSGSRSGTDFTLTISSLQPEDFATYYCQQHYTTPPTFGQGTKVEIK
notes: IgG
B4: MYT2266 (antibody, V domains shown)
VH: B1 VH with H103W, L111H
VL: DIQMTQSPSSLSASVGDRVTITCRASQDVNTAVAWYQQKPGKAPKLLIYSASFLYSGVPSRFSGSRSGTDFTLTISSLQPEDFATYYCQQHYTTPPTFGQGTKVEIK
notes: IgG
B5: MYT2262 (antibody, V domains shown)
VH: B1 VH with H103W, M107H
VL: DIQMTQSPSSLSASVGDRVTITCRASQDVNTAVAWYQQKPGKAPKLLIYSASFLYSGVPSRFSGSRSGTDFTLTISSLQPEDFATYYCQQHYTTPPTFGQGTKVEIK
notes: IgG
B6: MYT4515 (antibody, V domains shown)
VH: B1 VH with H103W
VL: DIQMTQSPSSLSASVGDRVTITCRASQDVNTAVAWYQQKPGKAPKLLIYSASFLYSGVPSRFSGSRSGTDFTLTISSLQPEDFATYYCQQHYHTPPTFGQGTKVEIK
notes: IgG
B7: MYT4502 (antibody, V domains shown)
VH: B1 VH with H103W
VL: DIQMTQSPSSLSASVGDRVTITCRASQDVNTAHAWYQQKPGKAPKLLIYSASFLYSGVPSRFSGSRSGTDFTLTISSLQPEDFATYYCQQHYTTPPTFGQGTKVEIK
notes: IgG
B8: MYT4509 (antibody, V domains shown)
VH: B1 VH with H103W
VL: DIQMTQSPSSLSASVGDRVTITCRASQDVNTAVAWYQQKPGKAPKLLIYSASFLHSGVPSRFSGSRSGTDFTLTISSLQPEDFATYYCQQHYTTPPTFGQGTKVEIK
notes: IgG
B9: MYT4512 (antibody, V domains shown)
VH: B1 VH with H103W
VL: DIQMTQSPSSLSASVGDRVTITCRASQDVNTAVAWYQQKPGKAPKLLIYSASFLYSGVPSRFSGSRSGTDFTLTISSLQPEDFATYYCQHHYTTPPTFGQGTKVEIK
notes: IgG
B10: MYT4495 (antibody, V domains shown)
VH: B1 VH with H103W
VL: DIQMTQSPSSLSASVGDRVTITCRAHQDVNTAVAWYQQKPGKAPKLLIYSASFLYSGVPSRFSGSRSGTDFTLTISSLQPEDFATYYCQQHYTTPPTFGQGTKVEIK
notes: IgG
B11: MYT4504 (antibody, V domains shown)
VH: B1 VH with H103W
VL: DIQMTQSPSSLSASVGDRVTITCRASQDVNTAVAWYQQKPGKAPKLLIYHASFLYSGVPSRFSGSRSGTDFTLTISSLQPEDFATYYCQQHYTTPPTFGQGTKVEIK
notes: IgG
B12: MYT4507 (antibody, V domains shown)
VH: B1 VH with H103W
VL: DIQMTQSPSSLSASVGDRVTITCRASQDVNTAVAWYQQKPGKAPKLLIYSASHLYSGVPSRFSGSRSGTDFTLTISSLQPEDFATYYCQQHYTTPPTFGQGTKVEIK
notes: IgG
B13: MYT4511 (antibody, V domains shown)
VH: B1 VH with H103W
VL: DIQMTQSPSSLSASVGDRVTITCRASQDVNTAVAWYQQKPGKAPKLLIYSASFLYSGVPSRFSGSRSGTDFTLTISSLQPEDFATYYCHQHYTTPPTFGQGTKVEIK
notes: IgG
B14: MYT2267 (antibody, V domains shown)
VH: B1 VH with H103W, D112H
VL: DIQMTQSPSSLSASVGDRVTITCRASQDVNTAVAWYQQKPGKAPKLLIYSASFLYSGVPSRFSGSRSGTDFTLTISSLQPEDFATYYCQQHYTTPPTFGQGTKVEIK
notes: IgG
B15: MYT4519 (antibody, V domains shown)
VH: B1 VH with H103W
VL: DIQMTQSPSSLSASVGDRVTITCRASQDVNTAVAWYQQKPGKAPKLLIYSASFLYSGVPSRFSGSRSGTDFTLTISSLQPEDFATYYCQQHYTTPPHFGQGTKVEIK
notes: IgG
B16: MYT4514 (antibody, V domains shown)
VH: B1 VH with H103W
VL: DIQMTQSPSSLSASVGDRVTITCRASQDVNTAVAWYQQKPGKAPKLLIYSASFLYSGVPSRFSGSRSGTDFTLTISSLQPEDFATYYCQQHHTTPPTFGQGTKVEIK
notes: IgG
B17: MYT4518 (antibody, V domains shown)
VH: B1 VH with H103W
VL: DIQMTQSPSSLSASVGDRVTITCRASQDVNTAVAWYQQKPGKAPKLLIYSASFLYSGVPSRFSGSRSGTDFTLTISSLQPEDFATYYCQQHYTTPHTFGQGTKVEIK
notes: IgG
B18: MYT4499 (antibody, V domains shown)
VH: B1 VH with H103W
VL: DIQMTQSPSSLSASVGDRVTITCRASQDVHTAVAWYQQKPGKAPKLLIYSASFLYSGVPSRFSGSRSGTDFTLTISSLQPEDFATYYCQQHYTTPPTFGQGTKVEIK
notes: IgG
B19: MYT2260 (antibody, V domains shown)
VH: B1 VH with H103W, S105H
VL: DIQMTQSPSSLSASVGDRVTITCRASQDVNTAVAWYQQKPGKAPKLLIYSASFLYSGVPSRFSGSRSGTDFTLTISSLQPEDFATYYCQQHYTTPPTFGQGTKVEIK
notes: IgG
B20: MYT4493 (antibody, V domains shown)
VH: B1 VH with H103W
VL: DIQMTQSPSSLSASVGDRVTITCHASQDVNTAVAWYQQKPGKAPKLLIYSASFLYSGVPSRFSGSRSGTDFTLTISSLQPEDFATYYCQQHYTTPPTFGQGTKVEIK
notes: IgG
B21: MYT4510 (antibody, V domains shown)
VH: B1 VH with H103W
VL: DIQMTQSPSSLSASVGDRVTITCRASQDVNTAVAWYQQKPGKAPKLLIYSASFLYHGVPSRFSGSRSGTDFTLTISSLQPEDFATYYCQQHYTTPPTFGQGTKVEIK
notes: IgG
B22: MYT2264 (antibody, V domains shown)
VH: B1 VH with H103W, Y109H
VL: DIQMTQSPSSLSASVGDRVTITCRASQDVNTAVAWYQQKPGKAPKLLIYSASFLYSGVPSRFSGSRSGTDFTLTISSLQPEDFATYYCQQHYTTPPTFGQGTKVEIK
notes: IgG
B23: MYT4508 (antibody, V domains shown)
VH: B1 VH with H103W
VL: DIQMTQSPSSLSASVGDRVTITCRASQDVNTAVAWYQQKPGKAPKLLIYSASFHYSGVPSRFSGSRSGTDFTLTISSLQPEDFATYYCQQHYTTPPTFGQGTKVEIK
notes: IgG
B24: MYT4497 (antibody, V domains shown)
VH: B1 VH with H103W
VL: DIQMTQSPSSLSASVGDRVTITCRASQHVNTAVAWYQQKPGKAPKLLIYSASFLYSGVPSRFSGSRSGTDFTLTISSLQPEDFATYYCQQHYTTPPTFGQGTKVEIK
notes: IgG
B25: MYT2265 (antibody, V domains shown)
VH: B1 VH with H103W, Y110H
VL: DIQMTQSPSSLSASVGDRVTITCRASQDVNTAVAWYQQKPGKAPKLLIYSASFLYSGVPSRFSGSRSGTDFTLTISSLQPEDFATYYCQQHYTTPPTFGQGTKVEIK
notes: IgG
B26: MYT4516 (antibody, V domains shown)
VH: B1 VH with H103W
VL: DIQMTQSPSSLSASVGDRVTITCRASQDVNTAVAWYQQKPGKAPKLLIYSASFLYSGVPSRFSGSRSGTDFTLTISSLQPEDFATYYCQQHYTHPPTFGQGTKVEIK
notes: IgG
B27: MYT4498 (antibody, V domains shown)
VH: B1 VH with H103W
VL: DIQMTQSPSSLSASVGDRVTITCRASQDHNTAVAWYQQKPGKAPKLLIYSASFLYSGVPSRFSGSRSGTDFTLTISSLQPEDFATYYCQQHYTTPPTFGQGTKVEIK
notes: IgG
B28: MYT4513 (antibody, V domains shown)
VH: B1 VH with H103W
VL: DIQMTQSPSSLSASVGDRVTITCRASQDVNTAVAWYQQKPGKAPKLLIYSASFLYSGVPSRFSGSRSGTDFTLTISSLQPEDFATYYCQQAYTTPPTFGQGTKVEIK
notes: IgG
B29: MYT4496 (antibody, V domains shown)
VH: B1 VH with H103W
VL: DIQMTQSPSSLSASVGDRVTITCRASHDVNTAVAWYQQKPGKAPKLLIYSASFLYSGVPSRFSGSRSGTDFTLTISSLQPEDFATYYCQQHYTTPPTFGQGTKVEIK
notes: IgG
B30: MYT4500 (antibody, V domains shown)
VH: B1 VH with H103W
VL: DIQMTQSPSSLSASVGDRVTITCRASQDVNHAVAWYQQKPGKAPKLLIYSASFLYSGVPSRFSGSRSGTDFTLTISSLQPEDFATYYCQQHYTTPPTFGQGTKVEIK
notes: IgG
B31: MYT2263 (antibody, V domains shown)
VH: B1 VH with H103W, D108H
VL: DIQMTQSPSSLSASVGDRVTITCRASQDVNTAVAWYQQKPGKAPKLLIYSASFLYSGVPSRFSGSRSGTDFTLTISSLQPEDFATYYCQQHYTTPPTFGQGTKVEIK
notes: IgG
B32: MYT4517 (antibody, V domains shown)
VH: B1 VH with H103W
VL: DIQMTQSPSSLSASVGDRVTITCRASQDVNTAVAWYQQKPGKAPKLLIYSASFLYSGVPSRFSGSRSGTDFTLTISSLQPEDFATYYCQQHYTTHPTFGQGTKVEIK
notes: IgG
B33: MYT2268 (antibody, V domains shown)
VH: B1 VH with H103W, Y113H
VL: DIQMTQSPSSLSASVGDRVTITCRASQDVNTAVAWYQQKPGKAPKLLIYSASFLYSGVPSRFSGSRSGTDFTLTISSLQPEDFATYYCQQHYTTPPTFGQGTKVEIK
notes: IgG
B34: MYT2185 (antibody, V domains shown)
VH: EVQLVESGGGVVQPGRSLRLSCSASHFTFSGYGLSWVRQAPGKGLEWVAMISSGGSYTYYADSVKGRFAISRDNAKNTLFLQMDSLRPEDTGVYFCARHGDDPAWFAYWGQGTPVTVSS
VL: DIQLTQSPSSLSASVGDRVTITCSVSSSISSNNLHWYQQKPGKAPKPWIYGTSNLASGVPSRFSGSGSGTDYTFTISSLQPEDIATYYCQQWSSYPYMYTFGQGTKVEIK
notes: IgG
B35: MYT2189 (antibody, V domains shown)
VH: B34 VH with H26G, S30H
VL: B34 VL
notes: IgG
B36: MYT2187 (antibody, V domains shown)
VH: B34 VH with H26G, T28H
VL: B34 VL
notes: IgG
B37: MYT2186 (antibody, V domains shown)
VH: B34 VH with H26G, F27H
VL: B34 VL
notes: IgG
B38: MYT2190 (antibody, V domains shown)
VH: B34 VH with H26G, G31H
VL: B34 VL
notes: IgG
B39: MYT2188 (antibody, V domains shown)
VH: B34 VH with H26G, F29H
VL: B34 VL
notes: IgG

What follows are binders tested against T1, FOLR1 (R&D Systems, Cat #5646-FR) (human, UniProt P15328 25-233) (assay: BLI, IgG on anti-human Fc sensor, 50 nM FOLR1).
T1 construct: Bought soluble protein; also called Folate Receptor 1
T1 sequence (P15328 25-233 limits assumed): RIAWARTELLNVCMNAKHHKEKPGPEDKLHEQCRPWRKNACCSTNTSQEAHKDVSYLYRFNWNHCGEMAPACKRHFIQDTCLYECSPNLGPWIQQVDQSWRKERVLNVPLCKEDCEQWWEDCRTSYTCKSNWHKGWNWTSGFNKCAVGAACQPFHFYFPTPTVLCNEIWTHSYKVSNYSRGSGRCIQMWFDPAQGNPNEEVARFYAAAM

Row | binding result | Binder
1 | binds | B1
2 | binds | B2
3 | binds | B3
4 | binds | B4
5 | binds | B5
6 | binds | B6
7 | binds | B7
8 | binds | B8
9 | binds | B9
10 | binds | B10
11 | binds | B11
12 | binds | B12
13 | binds | B13
14 | binds | B14
15 | binds | B15
16 | binds | B16
17 | binds | B17
18 | binds | B18
19 | binds | B19
20 | binds | B20

Row | binding result | Binder
21 | binds | B21
22 | binds | B22
23 | binds | B23
24 | binds | B24
25 | binds | B25
26 | binds | B26
27 | binds | B27
28 | binds | B28
29 | binds | B29
30 | binds | B30
31 | binds | B31
32 | binds | B32
33 | binds | B33
34 | binds | B34
35 | binds | B35
36 | binds | B36
37 | binds | B37
38 | binds | B38
39 | binds | B39
